Assay results published in publication PMC12377726 (Proceedings of the National Academy of Sciences of the …, 2025).

B1: G001_gp1_V06_VRC01c_86 (antibody, V domains shown)
VH: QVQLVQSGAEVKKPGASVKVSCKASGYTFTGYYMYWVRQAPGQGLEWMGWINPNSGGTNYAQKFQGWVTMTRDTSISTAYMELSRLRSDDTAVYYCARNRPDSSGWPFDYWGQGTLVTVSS
VL: QSALTQPPSASGSPGQSVTISCTGTSSDVGGYNYVSWYQQHPGKAPKLMIYEVSKRPSGVPDRFSGSKSGNTASLTVSGLQPEDEADYYCSSYEVFGTGTRVTVL
B2: G001_gp1_V06_VRC01c_83 (antibody, V domains shown)
VH: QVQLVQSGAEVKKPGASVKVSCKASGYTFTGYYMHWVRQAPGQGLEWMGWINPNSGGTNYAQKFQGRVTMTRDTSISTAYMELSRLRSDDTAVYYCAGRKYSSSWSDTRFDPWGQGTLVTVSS
VL: DIQMTQSPSSLSASVGDRVTITCQASQDINNYLNWYQQKPGKAPKLLIYDASNLETGVPSRFSGSGSGTDFTFTISSLQPEDIATYYCQQYEAFGQGTKVEIK
B3: G001_gp1_V07_VRC01c_2021-0036 (antibody, V domains shown)
VH: QVQLVQSGAEVKKPGASVKVSCKASGYTFTGYYMHWVRQAPGQGLEWMGWINPNSGGTNYAQKFQDWVTMTRDTSISTAYMEVSRLKSDDTAVYYCARGRAGTTAWWYFDLWGRGALVTVSS
VL: DIQMTQSPSSLSASVGDRVTITCQASQDISNYLNWYQQKPGKAPKLLIYDASNLETGVPSRFSGSGSGTDFTFTISSLQPEDVATYYCQQYDSFGPGTKVDIK
B4: G001_gp1_V07_VRC01c_107 (antibody, V domains shown)
VH: QVQLVQSGAEVKKPGASVKVSCKASGYTFTGYYMHWVRQAPGQGLEWMGWINPSSGGTNYAQKFQGRVTMTRDTSISTAYMELDWLRSDDTAVYYCARVRGATTFDYWGQGTLVTVSS
VL: DIQMTQSPSSLSASVGDRVTITCQASQDISNYLHWYQQKPGKAPKLLIYDASKLETGVPSRFSGSGSGTDFTFTISSLQPEDIATYYCQQYNTFGQGTKLQIK
B5: G001_gp1_V07_VRC01c_2021-0031 (antibody, V domains shown)
VH: not shown
VL: DIQMTQSPSSLSASVGDRVTITCQASQDISEYLNWYQQKPGKAPKLLIYDASNLETGVPSRFSGSGSGTDFTFTISSLQPEDVATYYCQQYEFFGGGTKVEIK
B6: G001_gp1_V07_VRC01c_101 (antibody, V domains shown)
VH: QVQLVQSGAEVKKPGASVKVSCKASRDTFTGYYMHWVRQAPGQGLEWMGWINPNSGGTNYAQKFQDGVTLTRDTSISTAYMELSRLRSDDTAVYYCARTEYYSQRGWAFDIWGQGTMVTVSS
VL: DIQMTQSPSSLSASVGDRVTITCQASQDISNHLNWYQQKPGKAPKLLIYDASNLETGVPLRFSGSGSGTDFTFTISSLQPEDIATYYCQQYDNFGPGTKVDIK
B7: G001_gp1_V07_VRC01c_2021-0038 (antibody, V domains shown)
VH: not shown
VL: DIQMTQSPSSLSASVGDRVTITCQASQGISNYLNWYQLKPGKAPKLLISDASNLETGVPSRFSGSGSGTDFTFTISSLQPEDIATYYCQQYDYFGPGTTVDIK
B8: G001_gp1_V07_VRC01c_2021-0039 (antibody, V domains shown)
VH: QVQLVQSGAEVKKPGASVRVSCKASGNTFTDYYMHWVRQAPGQGLEWMGWINPNSGGTNYAQKFQGRVTMTRDTSISTAYMELSRLRSDDTAVYYCASPGAAGQPWGFGYWGQGTLVTVSS
VL: DIQMTQSPSSLSASVGDRVTITCQASQDISNYLNWYQQKPGKAPKLLIYDASHLETGVPSRFSGSESGTECTLTISSLQPEDIATYYCQQYEFFGGGTKVEIK
B9: G001_gp1_V07_VRC01c_2021-0037 (antibody, V domains shown)
VH: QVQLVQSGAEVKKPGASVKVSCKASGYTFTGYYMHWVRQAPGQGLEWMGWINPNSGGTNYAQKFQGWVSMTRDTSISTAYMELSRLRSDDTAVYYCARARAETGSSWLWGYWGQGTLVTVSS
VL: DIQMTQSPSSLSASVGDRVTITCQASQDISNYLNWYQQKPGKAPKLLIYDASNLETGVPSRFSGSGSGTDFTFTISSLQPEDIATYYCQEYDTFGGGTKVEIK
B10: G001_gp1_V06_VRC01c_2021-0027 (antibody, V domains shown)
VH: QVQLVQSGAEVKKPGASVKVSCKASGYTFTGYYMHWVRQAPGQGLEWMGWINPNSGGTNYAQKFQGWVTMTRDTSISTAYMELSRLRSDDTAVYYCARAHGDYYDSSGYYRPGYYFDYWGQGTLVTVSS
VL: QSVLTQPPSVSGAPGQRVTISCTGSSSNIGAGYDVHWYQQLPGTAPKLLIYGNSNRPSGVPDRFSGSKSGTSASLAITGLQAEDEADYYCQSYEVFGGGTKLTVL
B11: G001_gp1_V06_VRC01c_81 (antibody, V domains shown)
VH: not shown
VL: EIVMTQSPATLCVSPGERATLSCRASQSVSSNLAWYQQKPGQAPRLLIYGASTRATGIPARFSGSGSGTEFTLTISSLQSEDFAVYYCQQYNNFGQGTKVEIK
B12: G001_gp1_V06_VRC01c_82 (antibody, V domains shown)
VH: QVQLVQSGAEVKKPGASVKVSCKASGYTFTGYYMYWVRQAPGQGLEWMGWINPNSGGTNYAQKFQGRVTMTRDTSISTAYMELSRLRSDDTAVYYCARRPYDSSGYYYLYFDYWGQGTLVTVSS
VL: EIVMTQSPATLSVSPGERATLSCRASQSVSSNLAWYQQKPGQAPRLLIYGASTRATGIPARFSGSGSGTEFTLTISSLQSEDFAVYYCQQYETFGGGTKVEIK
B13: G001_gp1_V07_VRC01c_105 (antibody, V domains shown)
VH: not shown
VL: EIVMTQSPATLSVSPGERATLSCRASQSVSSNLAWYQQKPGQAPRLLIYGASTRATGIPARFSGSGSGTEFTLTISSLQSEDFAVYYCQQYNIFGQGTKLEIK
B14: G001_gp1_V06_VRC01c_87 (antibody, V domains shown)
VH: not shown
VL: EIVMTQSPATLSVSPGERATLSCRASQSVSSNLAWYQQKPGQAPRLLIYGASTRATGIPARFSGSGSGTEFTLTISSLQSEDFAVYYCQQYETFGQGTKVEIK
B15: G001_gp1_V07_VRC01c_2021-0032 (antibody, V domains shown)
VH: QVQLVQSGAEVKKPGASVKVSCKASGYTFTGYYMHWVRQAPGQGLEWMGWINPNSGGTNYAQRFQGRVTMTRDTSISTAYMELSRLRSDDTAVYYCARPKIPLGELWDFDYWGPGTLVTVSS
VL: EIVMTQSPATLSVSPGERATLSCRASQSVSSNLAWYQQKPGQAPRLLIYGASTRATGIPARFSGSGSGTEFTLTISSLQSEDFAVYYCQQYEFFGPGTKVDIK
B16: G001_gp1_V06_VRC01c_76 (antibody, V domains shown)
VH: QVHLVQSGAEVKKPGASVKVSCKASEYTFSDYYMHWVRQAPGQGLEWMGWINPNSGGTNYAQKFQGRVTMTRDTSISTAYMELSRLRSDDTAVYYCATRGTGRYSYGSGTFYDYWGQGTLVTVSS
VL: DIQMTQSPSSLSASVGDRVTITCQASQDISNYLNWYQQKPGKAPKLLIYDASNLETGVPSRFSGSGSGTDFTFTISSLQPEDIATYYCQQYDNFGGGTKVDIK
B17: G001_gp1_V06_VRC01c_79 (antibody, V domains shown)
VH: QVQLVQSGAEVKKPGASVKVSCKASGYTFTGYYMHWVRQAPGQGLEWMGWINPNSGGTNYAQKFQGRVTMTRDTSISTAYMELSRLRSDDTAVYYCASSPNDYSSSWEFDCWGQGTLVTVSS
VL: EIVLTQSPGTLSLSPGERATLSCRASQSSSHLAWYQQKHGQAPRLLIYGASSRATGIPDRFSGSGSGTDFTLTISRLEPEDFAVYHCQQYETFGQGTKVEIK
B18: G001_gp1_V06_VRC01c_2021-0030 (antibody, V domains shown)
VH: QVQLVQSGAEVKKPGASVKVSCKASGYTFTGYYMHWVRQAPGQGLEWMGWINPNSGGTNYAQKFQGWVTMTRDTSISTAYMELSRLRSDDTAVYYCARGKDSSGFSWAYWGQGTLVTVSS
VL: DIQMTQSPSTLSASVGDRVTITCRASQSISSWLAWYQQKPGKAPKLLIYKASSLESGVPSRFSGSGSGTEFTLTISSLQPDDFATYYCQQYATFGQGTKVEIK
B19: G001_gp1_V07_VRC01c_102 (antibody, V domains shown)
VH: QVQLVQSGAEVKKPGASVKVSCKASGYTFTGYYMHWVRQAPGQGLEWMGWINPISGGTNYAQEFQDWVTMTRDTSISTAYMELSRLRSDDTAVYYCARHDSSENAFDIWGQGTMVTVSS
VL: DIQMTQSPSTLSASVGDRVTITCRASQSTSRWLAWYQQKPGKAPKLLIYKASSLESGVPSRFSGSGSGTEFTLTISSLQPDDFATYYCQQYTSFGQGTKLEIK
B20: G001_gp1_V07_VRC01c_2021-0033 (antibody, V domains shown)
VH: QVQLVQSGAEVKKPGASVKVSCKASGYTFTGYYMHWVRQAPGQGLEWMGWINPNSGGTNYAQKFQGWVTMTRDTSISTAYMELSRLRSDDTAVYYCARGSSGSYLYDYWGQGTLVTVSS
VL: DIQMTQSPSTLSASVGDRVTITCRASQSISSWLAWYQQKPGKAPKLLIYKASSLESGVPSRFSGSGSGTEFTLTISSLQPDDFATYYCQQYETFGQGTKVEIK
B21: G001_gp1_V07_VRC01c_111 (antibody, V domains shown)
VH: QVQLVQSGAEVKKPGASVKVSCKASGYTFTGYYMHWVRQAPGQGLEWMGWIYPNSGGTNYVQEFQGRVTMTRDTSISTAYMELSRLRSDDTAVYYCATDNYTTSSMLLRTWGQGTLVTVSS
VL: DIQMTQSPSTLSASVGDRVTITCRASQSISSWLAWYQQKPGKAPKLLIYKASSLESGVPSRFSGSGSGTEFTLTISSLQPDDFATYYCQQYETFGQGTKVEIK
B22: G001_gp1_V07_VRC01c_2021-0034 (antibody, V domains shown)
VH: QVQLVQSGAEVKKPGASVKVSCKASGYTFSGYYMHWVRQAPGQGLEWMGWINPNSGGTNYAQKFQGGVTMTRDTSISTAYMELSSLRSDDTAVYYCAREGGLGATAFDYWGQGTLVSVSS
VL: DIQMTQSPSTLSASVGDRVTITCRASQSISSWLAWYQQKPGKAPKLLIYKASSLESGVPSRFSGSGSGTEFTLTISSLQPDDFATYYCQQYETFGQGTKLEIK
B23: G001_gp1_V07_VRC01c_2021-0035 (antibody, V domains shown)
VH: QVQLVQSGAEVKKPGASVKVSCKASGYTFTDYYLHWVRQAPGQGLEWMGWINPNSGGTNYAQKFQDWVTMTRDTSISTAYMELSRLRSDDTAVYYCARDGLAARWDFDSWGQGTLVTVSS
VL: SYELTQPPSVSVAPGQTARITCGGNNIGSKSVHWYQQKPVQAPVLVVYDDGDRPSGIPERFSGSNSGNTATLTISRVEAGDEADYYCQVLEVFGTGTKVTVL
B24: G001_gp1_V06_VRC01c_2021-0026 (antibody, V domains shown)
VH: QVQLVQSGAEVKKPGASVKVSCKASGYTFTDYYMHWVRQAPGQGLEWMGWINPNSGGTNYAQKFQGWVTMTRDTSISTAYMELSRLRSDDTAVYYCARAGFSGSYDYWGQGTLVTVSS
VL: EIVLTQSPGTLSLSPGERATLSCRACQSVSSSYLAWYQQKPGQAPRLLIYGASSRATGIPDRFSGSGSGTDFTLTISRLEPEDFAVYYCQQYETFGQGTKLEIK
B25: G001_gp1_V06_VRC01c_2021-0028 (antibody, V domains shown)
VH: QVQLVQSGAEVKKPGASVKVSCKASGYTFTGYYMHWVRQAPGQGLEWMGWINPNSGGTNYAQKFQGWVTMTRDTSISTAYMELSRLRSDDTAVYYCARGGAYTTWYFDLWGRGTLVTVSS
VL: EIVLTQSPGTLSLSPGERATLSCRASQSVSGSYLAWYQQKPGQAPRLLIYGSSSRATGIPDRFSGSGSGTDFTLTISRLEPEDFAVYYCQQYETFGQGTKVEIK
B26: G001_gp1_V06_VRC01c_88 (antibody, V domains shown)
VH: QVQLVQSGAEVKKPGASVKVSCKASGYTFTGYYMHWVRQAPGQGLEWMGWINPNSGGTNYAQKFQGRVTMTRDTSISTAYMELRGLRSDDTAVYYCASLYYYVPGGWGQGTLVTVSS
VL: EIVLTQSPGTLSLSPGERATLSCRASQSVSNSYLAWYQQKPGQAPRLLIYGASSRATGIPDRFSGSGSGTDFTLTISRLEPEDFAVYYCQQYVTFGPGTKVDIK
B27: G001_gp1_V07_VRC01c_110 (antibody, V domains shown)
VH: QVQLVQSGAEVKKPGASVRVSCKASGYTFTDYYMHWVRQAPGQGLEWMGWINPNSGGTNYAQKFQGRVTMTRDTSISTAYMELSGLRSDDTAVYYCARITGYYDSSGYYCLDHWGQGTLVTVAS
VL: EIVLTQSPGTLSLSPGERATLSCRASQSGRSSYLAWYQQKPGQAPRLLIYGASSRATGIPDRFSGSGSGTDFTLTISRLEPEDFAVYYCHQYAAFGQGTKVEIK
B28: G001_gp1_V07_VRC01c_109 (antibody, V domains shown)
VH: QVQLVQSGAEVKKPGASVKVSCKTSGYTFTDYYIHWVRQAPGQGLEWMGWINPNSGGTNYAQKFQGGVTMTRDTSISTAYMDLNRLTSDDTAVYYCTRLPPNRAAPGWWFDPWGQGTLVTVSS
VL: EIVLTQSPGTLSLSPGERATLSCRASQSVSSSYLAWYQQKPGQAPRLLIYGASNRATGIPDRFSGSGSGTDFTLTISRLEPEDFAVYYCQQYGAFGQGTKVEIK
B29: G001_gp1_V07_VRC01c_2021-0040 (antibody, V domains shown)
VH: QVQLVQSGAEVKKPGASVKVSCKASGYTFTGYYMHWVRQAPGQGLEWMGWINPNSGGSNYAQKFQGRVTMTRDRSITTAYMELSRLRSDDTAVYYCARDHTGTAGWYFDLWGRGTLVTVSS
VL: EIVLTQSPGTLSLSPGERATLSCRASQSVSSSYLAWYHQKPGQAPRLLIYGASSRATGIPDRFSGSGSGTDFTLTISRLEPEDFAVYYCQQYETFGQGTKVEIT

What follows are binders tested against eOD-GT8 (engineered outer domain germline-targeting version 8), monomer (HIV-1 gp120 engineered outer domain, …).
B1: binds. B2: binds. B3: binds. B4: binds. B5: binds. B6: binds. B7: binds. B8: binds. B9: binds. B10: binds. B11: binds. B12: binds. B13: binds. B14: binds. B15: binds. B16: binds. B17: binds. B18: binds. B19: binds. B20: binds. B21: binds. B22: binds. B23: binds. B24: binds. B25: binds. B26: binds. B27: binds. B28: binds. B29: binds.
